Patent US20240131155A1, “T CELLS FOR USE IN THERAPY” (Erasmus University Medical Center Rotterdam, priority 2021, published 2024)
Peptide text beside a SMILES is read from it.

B1: Epitope 16 peptide AELTPELLKI (10-mer derived from immunopeptidome) (peptide)
peptide: AELTPELLKI
notes: Eluted from ROPN1B-overexpressing MDA-MB231 cells; mapped in silico to HLA-B40:01

Legend:
[1] = molecular target: T1, HLA-A2 (Homo sapiens, UniProt P04439, D140Y/D185E/D98H/E176V/E277Q/G131W/G231S/I119V/I121R/I166T/I218V/L300P/L318F/N151K/N90K/P208A/P217A/Q86G/Q94H/R138H/R169H/T345S); test: HLA-A2 stabilization assay using T2 cells; assay type: binding; settings: Table 4 (Examples 1 and 2); EC50 of peptide titration on T2 cells; read-out: Affinity for HLA.A2.01
T1 construct: The HLA-A2 stabilization assay was performed using T2 cells; endogenous in cells; host or cells: T2 cells (LCLxT lymphoblastoid hybrid cell line 0.1743CEM.T2)

[2] = test system: ROPN1 or ROPN1B over-expressing MDA-MB231 tumor cells; test: IFNg production of TCR T cells co-cultured with ROPN1 or ROPN1B over-expressing tumor cells (endogenously processed epitope); assay type: cell-based, human; settings: Table 4; responding TCRs / TCRs tested, T cells transduced with TCR specific for the epitope
Method: In a first series of in vitro tests, TCR-transduced T cells (6×10^4/well in a 96-well plate) were co-cultured with ROPN1 or ROPN1B over-expressing MDA-MB231 tumor cells (2×10^4/well) in a total volume of 200 μl of T cell medium for 24 h at 37° C. The ROPN1 or ROPN1B over-expressing tumor cells were generated as described under ‘generation and culture of cell lines and T cells’ (see above), and tumor cells were pre-treated 48 h with IFN-Y before co-culture with T cells. […] T cells that fulfilled these criteria (examples in FIG. 10A) were assessed for their sensitivity towards their cognate epitope. […] EC50 values were calculated using GraphPad Prism 5 software.

[3] = test system: CD8+ T cells; test: peptide:MHC multimer/tetramer staining of enriched T cells (flow cytometry); assay type: cell-based, human; settings: Table 4; enriched T cells after enrichment cycles
Method: (§1) Enrichment of epitope-specific CD8 T cells was performed according to the protocol described by Butler et al., Clin Cancer Res.;13(6):1857-1867 (2007), doi:10.1158/1078-0432, but included the following amendments. CD8+ T lymphocytes were collected from PBMCs by magnetic-activated cell sorting (MACS) according to the CD8 isolation kit (Miltenyi Biotec). CD8+ T cells with >95% purity were subsequently cultured in T cell medium supplemented with IL-2 (36 IU/mL; but no gentamycin) for 1 day, after which expansion cycles started. K562ABC cells (kindly provided by prof. Bruce Levine, University of Pennsylvania, PA) were loaded with 10 μg/ml ROPN1 and/or ROPN1B peptide and incubated for 5 h at RT in serum-free medium, after which cells were washed and fixed with 0,1% paraformaldehyde. After washing, K562ABC cells were suspended at 0.1×10^6/mL and co-cultured with T cells in a 1:20 ratio. IL-2 (36 IU/mL) and IL-15 ([…]) were added at days 1 and 3 days after start of co-culture, and after 6 days, T cells were counted, suspended at 2×10^6/mL and rested for 1 day, after which the next cycle commenced (this schedule continued up to 4 or 5 cycles). Following 4 and 5 cycles, T cells were stained with pMHC multimers (HLA*0201/MLN, Immudex, Copenhagen, Denmark). pMHC-PE were pre-incubated at RT for 10 min followed by incubation with 7AAD, anti-CD3-FITC and anti-CD8-APC for 20 min. Cells were fixed with 1% paraformaldehyde and TCR expression was measured with flow cytometry and analyzed using FlowJoX software. FIG. 4A schematically depicts the procedure to enrich epitope-specific T cells, and obtainthe corresponding TCR genes.
Following enrichment, T cells were tested for ROPN1 and/or ROPN1B epitope-specific IFNY production. To this end, T2 cells (1×10^6/mL) were loaded with peptide (20 ng/mL) for 30 min, after which T cells (1×10^5) were cultured in a 1:1 ratio with T2 cells in a round bottom 96-wells plate for 18 h. Supernatant was collected and IFN-γ production was measured with an Enzyme-linked immunosorbent assay (ELISA, BioLegend) according to the manufacturer's protocol (FIG. 9A). T2 cells loaded with an irrelevant peptide were included as a negative control. T cell IFNg production was considered epitope-specific in case levels exceeded 200 pg/ml, and levels were minimally twice as high as for irrelevant peptide (see for full listing of criteria, FIG. 8). T cells that fulfilled these criteria were stained with peptide:MHC (pMHC) tetramers to determine the frequency of epitope-specific T cells. Empty Loadable HLA Tetramers (5 μL, Tetramer shop, Kongens Lyngby, Denmark) were incubated with 0.5 μL peptide (200 μM) for 30 min on ice. Complexes of pMHC were centrifuged (3300 g, 5 min) and incubated with 0.1×10^6 T cells for 15 min at 37° C. in the dark. Next, an antibody cocktail containing CD3-FITC (1:30, BD) and CD8-APC (1:300, eBiosciences) was added and incubated for an additional 30 min at 4° C. in the dark. Finally, T cells were washed twice and fixed with 1% paraformaldehyde (PFA), after which events were acquired with FACSCelesta (BD) and analyzed using FlowJoX software.

[4] = test system: CD8+ T cells; test: Enrichment of epitope-specific CD8 T cells from healthy donors, epitope-specific IFNg production (ELISA); assay type: cell-based, human; settings: Table 4; positive co-cultures / co-cultures tested
Method: as §1
Enriched T cells were tested for ROPN1 and/or ROPN1B epitope-specific IFNY production. To this end, T2 cells (4×10^6/mL) were loaded with peptide (20 ng/mL) for 30 min. T cells (2×10^5) were cultured in a 1:1 ratio with T2 cells in a round bottom 96-wells plate, and the next day supernatant was collected and IFN-γ production was measured with an Enzyme-linked immunosorbent assay (ELISA, Invitrogen) according to manufacturer's protocol (FIG. 4B). T2 cells without peptide were included as a negative control; and staphylococcal enterotoxin B (0.1 μg, Sigma) was used as a positive control.
Enrichment of epitope-specific T cells was performed by co-culturing naïve T cells with CD11c-positive cells that were loaded with peptide. PBMCs were passed through a cell strainer (70 μm) and used for the isolation of naïve T cells and CD11c cells. To isolate CD11c-positive cells (typically dendritic cells, DC), PBMCs were stained for 10 mM at 4° C. with Fc block (10 μL/10^7 PBMCs, BD Pharmingen, Vianen, the Netherlands), after which cells were stained with CD11c-PE antibody (10 μL/10^7 PBMCs, BD Pharmingen) for 30 mM at 4° C., washed, and incubated with PE beads (10 μL/10^7 PBMCs, Miltenyi Biotech, Bergisch Gladbach, Germany) for another […] at 4° C. After washing, cells were dissolved in magnetic-activated cell sorting (MACS) buffer and passed through a MACS LS column (Miltenyi Biotec) to positively select CD11c cells. After selection, CD11c cells were irradiated with 30 Gy, and cultured overnight in a 24-wells plate (1×10^6/mL) in RPMI medium supplemented with 1% human serum (Sanquin), 1% antibiotics, […] L-glutamine, a DC maturation cocktail (a mixture of GM-CSF (10 ng/mL, ImmunoTools, Germany), IL-4 (10 ng/mL, ImmunoTools), LPS (100 ng/mL, Invitrogen, Goteborg, Sweden) and IFNY (10 ng/mL, Preprotech, London, United Kingdom)), as well as peptide (10 pg/mL). Naïve T cells were isolated with use of the Naïve T Cell isolation kit (Miltenyi Biotec) according to the manufacturer's protocol, and suspended in RPMI medium supplemented with 5% human serum (Sanquin), 1% antibiotics, […] L-glutamine and IL-7 (5 ng/mL, BD Pharmingen). The run-through of the naïve T cell selection was frozen down and used for re-stimulation of epitope-specific T cells. […]

[5] = molecular target: T2, HLA-A2 (HLA-A2:01) on T2 cells (human); test: HLA-A2 stabilization assay on T2 cells (anti-HLA-A2-PE, flow cytometry), single peptide concentration 25 ug/mL [panel E]
T2 construct: detected with anti-HLA-A2 mAb BB7.2

[6] = molecular target: T2, HLA-A2 (HLA-A2:01) on T2 cells; test: HLA-A2 stabilization assay on T2 cells, peptide titration; amplitude = highest data point corrected for baseline [panel E]
[7] = molecular target: T2, HLA-A2 (HLA-A2:01) on T2 cells; test: HLA-A2 stabilization assay on T2 cells (anti-HLA-A2-PE, flow cytometry), single peptide concentration [panel D]
[8] = molecular target: T2, HLA-A2 (HLA-A2:01) on T2 cells; test: HLA-A2 stabilization assay on T2 cells, peptide titration, flow cytometry with anti-HLA-A2 BB7.2; column Affinity for HLA A2:01 (M)
[9] = molecular target: T2, HLA-A2 (HLA-A2:01) on T2 cells; test: HLA-A2 stabilization assay on T2 cells, peptide titration (Example 2, repeated); column Affinity for HLA.A2.01 (M)
[10] = molecular target: T2, HLA-A2 (HLA-A2:01) on T2 cells; test: HLA-A2 stabilization assay on T2 cells, peptide titration; amplitude relative to that of reference peptide YLE [panel D]
[11] = molecular target: T2, HLA-A2 (HLA-A2:01) on T2 cells; test: HLA-A2 stabilization assay on T2 cells (anti-HLA-A2-PE, flow cytometry), single peptide concentration [panel B; D00018 Figure 7 continued, panel D]
[12] = molecular target: T2, HLA-A2 (HLA-A2:01) on T2 cells; test: HLA-A2 stabilization assay on T2 cells, peptide titration; EC50 calculated with GraphPad [panel D]
[13] = molecular target: T2, HLA-A2 (HLA-A2:01) on T2 cells; test: HLA-A2 stabilization assay on T2 cells, peptide titration (Example 2); column Affinity for HLA.A2.01 (M)

Row | Molecule | Minimum stability [5] | Amplitude [6] | Minimum stability [7] | EC50 [8] | EC50 [9] | Amplitude [10] | also measured
1 | CC[C@H](C)[C@H](NC(=O)[C@H](CC(C)C)NC(=O)CNC(=O)[C@H](CC(=O)O)NC(=O)[C@@H]1CCCN1C(=O)CNC(=O)[C@@H](NC(=O)[C@@H](NC(=O)[C@@H](N)CCC(=O)O)C(C)C)[C@@H](C)CC)C(=O)N[C@H](C(=O)N[C@H](C(=O)O)C(C)C)[C@@H](C)O (H-EVIGPDGLITV-OH; N-terminus and C-terminus assumed) |  |  |  |  |  |  | EC50 [1]: 655 nM; T cell responses observed (IFNg) against endogenously presented epitope [2]: 1/7 responses; pMHC staining % pMHC+ CD8+ in CD3+ [3]: 8.25%; T cell responses observed (IFNg) against epitope [4]: 2/2 co-cultures
2 | FQFLYTYIA (Synthetic peptide) [Epitope 6 peptide FQFLYTYIA of ROPN1 and ROPN1B] | 1.32 fold change over baseline | 2380 geometric mean normalized to baseline | 1.14 fold change over baseline | 3.28 µM | 3.43 µM | 0.739 relative to YLE | 
3 | B1 | 1.17 fold change over baseline |  | 1.08 fold change over baseline |  |  |  | binding result [11]: no binding
4 | GVTITKTLK (ROPN1A and ROPN1B, eluted) |  |  | 1.18 fold change over baseline |  |  | 0.489 relative to YLE | EC50 [12]: 570 nM
5 | LPRIPFSTF (ROPN1B, eluted) |  |  | 1.14 fold change over baseline |  |  | 0.38 relative to YLE | EC50 [12]: 66.4 nM
6 | EVIGPDGLITV (Synthetic peptide) [Epitope 11 (EVI) peptide EVIGPDGLITV of ROPN1B] |  |  | 1.57 fold change over baseline |  |  | 1.12 relative to YLE | EC50 [13]: 0.655 µM
7 | KMLKEFAKA (Synthetic peptide) [Epitope 9 peptide KMLKEFAKA of ROPN1 and ROPN1B] | 1.19 fold change over baseline | 2660 geometric mean normalized to baseline | 1.2 fold change over baseline | 91.2 µM | 38.2 µM | 0.842 relative to YLE | 
8 | ALACSALGV (Synthetic peptide) [Epitope 7 peptide ALACSALGV of ROPN1 and ROPN1B] | 1.37 fold change over baseline | 2180 geometric mean normalized to baseline | 1.26 fold change over baseline | 3.16 µM | 2.84 µM | 0.852 relative to YLE | 
9 | FLYTYIAKV (Synthetic peptide) [Epitope 4 (FLY-A) peptide FLYTYIAKV of ROPN1] | 1.5 fold change over baseline | 2710 geometric mean normalized to baseline | 1.63 fold change over baseline | 10.9 µM | 8.11 µM | 0.888 relative to YLE | 
10 | FLYTYIAEV (Synthetic peptide) [Epitope 10 (FLY-B) peptide FLYTYIAEV of ROPN1B] |  |  | 1.42 fold change over baseline |  |  | 0.593 relative to YLE | EC50 [13]: 21.1 µM
11 | AQMWKVVNL (Synthetic peptide) [Epitope 8 peptide AQMWKVVNL of ROPN1 and ROPN1B] | 1.29 fold change over baseline | 3480 geometric mean normalized to baseline | 1.4 fold change over baseline | 11.4 µM | 10.5 µM | 0.924 relative to YLE | 
12 | SALGVTITK (ROPN1A and ROPN1B, eluted) |  |  | 0.92 fold change over baseline |  |  |  | binding result [11]: no binding
13 | KTLKIVCEV (Synthetic peptide) [Epitope 3 peptide KTLKIVCEV of ROPN1 and ROPN1B] | 1.18 fold change over baseline | 2620 geometric mean normalized to baseline | 1.26 fold change over baseline | 4.35 µM | 4.4 µM | 0.844 relative to YLE | 
